In the assay the target is T1, His6-tagged extracellular domain of human CD8A (human, UniProt P01732 22-182).
T1 construct: extracellular domain; coated on the solid phase for panning and for the ELISA screening; also called Hiss-tagged extracellular domain of human CD8A; not shown: His tag
Put plainly: ELISA, crude periplasmic extracts on coated His-tagged extracellular domain of human CD8A. How it is done:
Three consecutive rounds of panning of a VHH library were performed on solid-phase coated Hiss-tagged extracellular domain of human CD8A (200 μg/ml, 20 μg/well). The enrichment for antigen-specific phages was assessed after each round of panning by comparing the number of phagemid particles eluted from antigen-coated wells with the number of phagemid particles eluted from only-blocked wells (negative control wells). […] 285 colonies (95 & 190 from 2nd and 3rd rounds, respectively) were randomly selected and analyzed by ELISA for the presence of antigen-specific VHHs in their periplasmic extracts (ELISA using crude periplasmic extracts including soluble VHHs). The antigen used for the ELISA screening was the same as the one used for immunization and panning. Out of these 285 colonies, 64 colonies (3 and 61 from 2nd and 3rd rounds of panning, respectively) scored positive in this assay. Based on sequence data, the 64 positive colonies represented 16 different VHHs. The 16 different VHHs belong to 6 different CDR3 groups. Table 2 below provides a description of 3 clones representing the 3 different anti-human CD8A VHH genes. E. coli TG1 harboring recombinant phagemid pMECS containing anti-human CD8A VHH sequences was generated and stored at −80° C. The vector pMECS codes for ampicillin resistance.
For orientation: An ELISA detects its analyte on a solid surface through an enzyme-linked reagent.

Where a chain is given by its changes, count along the chain named.

T1 sequence (P01732 22-182): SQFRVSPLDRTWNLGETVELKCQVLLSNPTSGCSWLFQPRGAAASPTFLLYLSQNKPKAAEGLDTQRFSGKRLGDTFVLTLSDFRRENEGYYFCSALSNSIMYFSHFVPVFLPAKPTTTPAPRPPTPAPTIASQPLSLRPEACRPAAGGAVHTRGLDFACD

B1: R2HCD26 (VHH)
VHH: QVQLQESGGGLVQAGGSLRLSCAASGFTFDDYAIGWFRQAPGKEREGVSCIRVSDGSTYYADPVKGRFTISSDNAKNTVYLQMNSLKPEDAAVYYCAAGSLYTCVQSIVVVPARPYYDMDYWGKGTQVTVSS
notes: not shown: His tag (His-tagged VHHs); the vectors described carry His6 at the C-terminus; exact junction of the tested form not sta
For the molecule B1, the binding result was “binds”.

B2: R3HCD27 (VHH)
VHH: QVQLQESGGGSVQPGGSLRLSCAASGFTFDDYAMSWVRQVPGKGLEWVSTINWNGGSAEYAEPVKGRFTISRDNAKNTVYLQMNSLKLEDTAVYYCAKDADLVWYNLSTGQGTQVTVSS
notes: as for B1
Regarding B2, the binding result is listed as “binds”.

B3: R3HCD129 (VHH)
VHH: B2 VHH with S11L, S108R
notes: as for B1
Regarding B3, the binding result is reported as “binds”.

Values taken from patent US20190071500A1 (ORIONIS BIOSCIENCES, published 2019).
